Results published in patent US20200147199A1 (ROCKEFELLER UNIVERSITY, published 2020).
Changes are numbered by the printed parent chain.

B1: Z031 (BRA112_46) (antibody, V domains shown)
VH: EVQLLESGGGLVQPGGSLRLSCVASGFTFGSYGMAWVRQAPGKGLEWISSISSIDPSTYYADSVKGRFTVSRDNSENTLYLHMSSLKVEDTAVYFCAKDRLNGGFGELFASWGQGTLVTVSS
VL: DIQMTQSPSTLSASVGDSVTITCRASQSISSWLAWYQQKPGKAPKFLIHKASSLESGIPSRFSGSGSGTEFTLTINNLQPDDFATYYCQHYHSYPWTFGQGTKVEIK
B2: Z004 (MEX18_89) (antibody, V domains shown)
VH: EVQLLESGGGLVQPGGSLRLTCATSGFTFRDYAMSWVRQAPGKGLEWVSSYSGIDDSTYYADSVKGRFTISRDNSKSTLSLHMNSLRAEDSALYFCAKDRGPRGVGELFDSWGQGTLVTVSS
VL: DIQMTQSPSTLSASVGDRVTITCRASQSISKWLAWYQQKPGKAPKLLIYTTSTLKSGVPSRFSGSGSGTEFTLTISSLQPDDFATYYCQHFYSVPWTFGQGTKVEIK
notes: also called biotin-Z004 (biotinylated form)
B3: Z001 (MEX18_21) (antibody, V domains shown)
VH: EVQLLESGGGLVQPGGSRRLSCATSGFSFDTYAMSWLRQAPGKGLEWVSSFSGLDDSTYYADSVKGRFTISRDNSKNTLYLQMNSLRAEDTAIYYCAKDRGPRGIGELFDFWGQGTLVTVSS
VL: B2 VL with K31R, T50K, G57E, Y92H
B4: Z028 (MEX84_p4-53) (antibody, V domains shown)
VH: EVQLLESGGGLVQPGGSLRLSCAASGFTFSAYAMSWVRQAPGKGLEWVSSINGHSDSTYFADSVKGRFTISRDNSKNTLYLQMNSLRAEDTALYYCAKDRLREGIGELFHSWGQGTLVTVSS
VL: B2 VL with V15I, S30T, K31P, L46F, T50Q, T53I, K55E, F91Y, Y92H, V94Y
B5: Z044 (BRA138_46) (antibody, V domains shown)
VH: QVQLVQSGAEVKKPGASVKVSCKASGYTFTSTYIHWVRQAPGQGLEWMGIINPSSSNTNYAQKFQGRVTMTRDTSTSTVYMELSSLRSEDTAVYYCARDFGGYSSSSVSDAFDIWGQGTMVTVSS
VL: QSALTQPASVSGSPGQSITISCTGTSSDVGSFNLVSWYQQHPGKAPKLIIYEVSKRPSGVSNRFSGSKSGNTASLTISGLQAEDEVHYYCCSYAGSSRFVFGTGTKVTVL
B6: Z006 (MEX105_42) (antibody, V domains shown)
VH: EVQLLESGGGLVQPGGSLRLSCAASGFTFKNYAMAWVRQAPGKGLEWVSLLYNSEESTYYADSVKGRFTISRDNSKNTLFLQMNRLRVEDTAVYFCVRDRSNGWSSINLWGRGTLVTVSS
VL: DIQMTQSPSTLSASVGDRVTMTCRASQTISGWLAWYQQKPGKAPKLLIYQASRLESGIPSRFSGSGSGTEFTLTISSLQPDDVATYYCQQYSTFWTFGLGTKVEIK
B7: Z010 (MEX105_88) (antibody, V domains shown)
VH: EVQLLESGGGLVQPGGSLRLSCAASGFTFSNYAMAWVRQAPGKGLEWVSLIYSGDDSTYYADFVKGRFTISRHNSKNTLSLQMNSLRAEDTAIYYCVKDRGTGWSSIVHWGQGTLVTVSS
VL: B6 VL with M21I, G31N, R53S, I58V, V83F, F94Y, L99Q
B8: Z040 (BRA12_81) (antibody, V domains shown)
VH: EVQLLESGGGLVQPGGSLRLSCAASGFTFSTYAMSWVRQAPGKGLEWVSAISGSGRSTYYADSVKGRFTISRDNSKNTLYLQMNSLRGEDTAVYYCAKSSGGHNWNYVDYYYGMDVWGQGTTVTVSS
VL: DIQLTQSPSFLSASVGDRVTITCRASQGISSYLAWYQQKPGKAPKLLIYAASTLQSGVPSRFSGSGSGTEFTLTISSLQPEDFATYYCQQLNSYPVTFGPGTKVDIK
B9: Z054 (BRA138_94) (antibody, V domains shown)
VH: QLQLQESGPRLVKPSETLFLTCTVSGDSISSSSYFWGWIRQPPGKGLEWIGSISYSGSTYYNPSLKSRVTISVDTSKNQFSLKLSSVTAADTVVYYCAKHLYSSSWNIGSSFDSWGPGTLVTVSS
VL: EIVLTQSPATLSLSPGERATLSCRASQSVSIYLAWYQQKPGQAPRLLIYDASSRATGIPARFSGSGSGTDFTLTISSLEPEDFAVYYCQQRSNWPVYTFGQGTKVEIK
B10: Z038 (BRA12_2) (antibody, V domains shown)
VH: EVQLLESGGGLVQPGGSLRLSCEASGFTFSNYAMNWVRQAPGKGLEWVSTLGATDNSGDSTYYVESAKGRFTISRDNSKNTLYLQMNSLRVEDTAVYFCAKDRTGNIGAGTGYFDKWGQGTLVTVSS
VL: DIQMTQSPSTLSASVGDRVTITCRASHRISGWLAWYQQKPGKAPKLLIYQASGLESGVPSRFSGSGYGTEFTLTISSLQADDFATYYCQQYNNYPWTFGQGTKVEIK
notes: also called BRA12_02
B11: Z032 (BRA112_24) (antibody, V domains shown)
VH: EVQLLESGGRLVQPGGSLTLSCAASGFPFSTYAMSWLRQAPGKGLEWVSGITGDSGSTYYAASVKGRFTISRDNSKNTLYLQMNSLTADDTAVYYCAKDRLHSGLGELFSYWGQGTLVTVSS
VL: DIQMTQSPSTLSASVGDRVNITCRASQSINQWLAWYQQKPGKAPKFLMYKASTLETGVPSRFSGSGSGTEFTLTISSLQPDDFATYYCQHYFSYPWTFGQGTKVEIK
B12: Z035 (BRA112_71) (antibody, V domains shown)
VH: EVQLLESGGGLIQPGGSLRLSCAASGFTFSSYAMSWVRQAPGKGLEWVSGISGSGGASDNGASRYYADSVKGRFSISRDNSKNTVYLQMNSLRAEDTAVYYCAKDRLSGGFGELFQKWGQGTLVTVSS
VL: B11 VL with S12A, N20T, S28N, Q31S, M48I, T56S, V58A, F92Y, W96Y
B13: Z021 (MEX84_p4-23) (antibody, V domains shown)
VH: QVQLQESGPGLVKPSETLSLTCTVSGGSIDTYYWSWIRQTPGKGLEWIGCFYYSVDNHFNPSLESRVTISVDTSKNQFSLKMTSMTASDTAVYYCARNQPGGRAFDYWGPGTLVTVSS
VL: EIVLTQSPATLSLSPGQRATLSCRASQSVSNYFAWYQQKPGQAPRLLIYDTSKRATGTPARFSGSGSGTDFTLTISSLEPEDFAVYYCQERNNWPLTWTFGLGTKVEIK

Assays:
[1] = molecular target: DENV3 EDIII, polyhistidine-AviTag (DENV3); assay: cross-reactivity ELISA
[2] = molecular target: DENV1 E protein (strain PUO-359) on RVPs or on virus (DENV1, strain PUO-359); assay: cell-based or functional assay
[3] = molecular target: ZIKV E protein (2015 Puerto Rican PRVABC59 strain) on virus (ZIKV, strain PRVABC59); assay: cell-based or functional assay
[4] = molecular target: T1, ZIKV E Domain III ([..]), polyhistidine-AviTag, produced in HEK-293-6E cells (ZIKV); assay: ELISA on coated ZIKV EDIII
T1 construct: also called ZEDIII; ZIKV EDIII

[5] = molecular target: T2, DENV1 EDIII, polyhistidine-AviTag, produced in HEK-293-6E cells (DENV1); assay: cross-reactivity ELISA
T2 construct: also called EDIII of DENV1
T2 sequence (P17763 577-674, tags left off): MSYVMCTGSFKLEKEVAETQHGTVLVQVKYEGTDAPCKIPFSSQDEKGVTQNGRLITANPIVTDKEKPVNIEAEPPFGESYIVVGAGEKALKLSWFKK

Binder | binding result [1] | EC50 [4] | further results
B1 | no binding (tested: 10 µg/ml) | – | –
B2 | no binding (tested: 10 µg/ml) | – | IC50, DENV1 luciferase RVPs [2]: 0.0016 µg/mL; IC50, flow cytometry with authentic DENV1 [2]: 0.0164 µg/mL; IC50, plaque reduction neutralization test (PRNT) [3]: 0.0022 µg/mL
B3 | no binding (tested: 10 µg/ml) | – | –
B4 | no binding (tested: 10 µg/ml) | – | –
B5 | – | > 10 µg/mL | binding result [5]: no binding (tested: 10 µg/ml)
B6 | no binding (tested: 10 µg/ml) | – | –
B7 | no binding (tested: 10 µg/ml) | – | –
B8 | – | > 10 µg/mL | binding result [5]: no binding (tested: 10 µg/ml)
B9 | – | > 10 µg/mL | binding result [5]: no binding (tested: 10 µg/ml)
B10 | no binding (tested: 10 µg/ml) | – | –
B11 | – | 0.0195 µg/mL | –
B12 | no binding (tested: 10 µg/ml) | – | –
B13 | – | – | IC50, DENV1 neutralization (flow cytometry) [2]: 0.0101 µg/mL; IC50, plaque reduction neutralization (PRNT) [3]: 0.004 µg/mL
